Reference: publication PMC9726900
One block for each substance: values may come before it.

Assays:
[1] = molecular target: 46w60 nucleosome (recombinant human histone octamer on Widom 601 DNA with 46-bp and 60-bp flanks), Cy5-labelled (human) (UniProt P0C0S8); experiment: MST; CHD4 titrated (1:2 serial dilution) into 25 nM Cy5-labelled 46w60 nucleosome; 50 mM HEPES pH 7.5, 50 mM NaCl, 3 mM MgCl2 dilution buffer, 100 ng/µL BSA, 0.5% glycerol; 10 min on ice; Monolith NT.115, 80% LED, 20% MST power; fit to a 1:1 binding isotherm
[2] = tested on: CHD4 C1bC2a (SANT-SLIDE) (Homo sapiens); experiment: MST; conditions: 120 mM NaCl, 1 mM TCEP, no Mg2+; CHD4: 50 mM HEPES pH 7.5, NaCl up to 50 mM and MgCl2 up to 3 mM (from dilution buffer), 100 ng/uL BSA, 0.5% glycerol, 25 nM Cy5 substrate; C1bC2a: 20 mM HEPES …
CHD4 WT (Homo sapiens) = experiment: MST; conditions: 3 mM Mg2+ in dilution buffer; CHD4: 50 mM HEPES pH 7.5, NaCl up to 50 mM and MgCl2 up to 3 mM (from dilution buffer), 100 ng/uL BSA, 0.5% glycerol, 25 nM Cy5 substrate; C1bC2a: 20 mM HEPES …
[3] = tested on: CHD4(1-1230) (Homo sapiens); experiment: MST; conditions: CHD4: 50 mM HEPES pH 7.5, NaCl up to 50 mM and MgCl2 up to 3 mM (from dilution buffer), 100 ng/uL BSA, 0.5% glycerol, 25 nM Cy5 substrate; C1bC2a: 20 mM HEPES …
[4] = tested on: CHD4(1-1380) (Homo sapiens); experiment: MST; conditions: CHD4: 50 mM HEPES pH 7.5, NaCl up to 50 mM and MgCl2 up to 3 mM (from dilution buffer), 100 ng/uL BSA, 0.5% glycerol, 25 nM Cy5 substrate; C1bC2a: 20 mM HEPES …
[5] = tested on: CHD4(1-1810) (Homo sapiens); experiment: MST; conditions: CHD4: 50 mM HEPES pH 7.5, NaCl up to 50 mM and MgCl2 up to 3 mM (from dilution buffer), 100 ng/uL BSA, 0.5% glycerol, 25 nM Cy5 substrate; C1bC2a: 20 mM HEPES …
[6] = tested on: CHD4-IDR2-del- (Homo sapiens); experiment: MST; conditions: 3 mM Mg2+ in dilution buffer; CHD4: 50 mM HEPES pH 7.5, NaCl up to 50 mM and MgCl2 up to 3 mM (from dilution buffer), 100 ng/uL BSA, 0.5% glycerol, 25 nM Cy5 substrate; C1bC2a: 20 mM HEPES …
[7] = tested on: CHD4-IDR2-scram (Homo sapiens); experiment: MST; conditions: 3 mM Mg2+ in dilution buffer; CHD4: 50 mM HEPES pH 7.5, NaCl up to 50 mM and MgCl2 up to 3 mM (from dilution buffer), 100 ng/uL BSA, 0.5% glycerol, 25 nM Cy5 substrate; C1bC2a: 20 mM HEPES …

CHD4(1–1230), sequence (Q14839 1-1230): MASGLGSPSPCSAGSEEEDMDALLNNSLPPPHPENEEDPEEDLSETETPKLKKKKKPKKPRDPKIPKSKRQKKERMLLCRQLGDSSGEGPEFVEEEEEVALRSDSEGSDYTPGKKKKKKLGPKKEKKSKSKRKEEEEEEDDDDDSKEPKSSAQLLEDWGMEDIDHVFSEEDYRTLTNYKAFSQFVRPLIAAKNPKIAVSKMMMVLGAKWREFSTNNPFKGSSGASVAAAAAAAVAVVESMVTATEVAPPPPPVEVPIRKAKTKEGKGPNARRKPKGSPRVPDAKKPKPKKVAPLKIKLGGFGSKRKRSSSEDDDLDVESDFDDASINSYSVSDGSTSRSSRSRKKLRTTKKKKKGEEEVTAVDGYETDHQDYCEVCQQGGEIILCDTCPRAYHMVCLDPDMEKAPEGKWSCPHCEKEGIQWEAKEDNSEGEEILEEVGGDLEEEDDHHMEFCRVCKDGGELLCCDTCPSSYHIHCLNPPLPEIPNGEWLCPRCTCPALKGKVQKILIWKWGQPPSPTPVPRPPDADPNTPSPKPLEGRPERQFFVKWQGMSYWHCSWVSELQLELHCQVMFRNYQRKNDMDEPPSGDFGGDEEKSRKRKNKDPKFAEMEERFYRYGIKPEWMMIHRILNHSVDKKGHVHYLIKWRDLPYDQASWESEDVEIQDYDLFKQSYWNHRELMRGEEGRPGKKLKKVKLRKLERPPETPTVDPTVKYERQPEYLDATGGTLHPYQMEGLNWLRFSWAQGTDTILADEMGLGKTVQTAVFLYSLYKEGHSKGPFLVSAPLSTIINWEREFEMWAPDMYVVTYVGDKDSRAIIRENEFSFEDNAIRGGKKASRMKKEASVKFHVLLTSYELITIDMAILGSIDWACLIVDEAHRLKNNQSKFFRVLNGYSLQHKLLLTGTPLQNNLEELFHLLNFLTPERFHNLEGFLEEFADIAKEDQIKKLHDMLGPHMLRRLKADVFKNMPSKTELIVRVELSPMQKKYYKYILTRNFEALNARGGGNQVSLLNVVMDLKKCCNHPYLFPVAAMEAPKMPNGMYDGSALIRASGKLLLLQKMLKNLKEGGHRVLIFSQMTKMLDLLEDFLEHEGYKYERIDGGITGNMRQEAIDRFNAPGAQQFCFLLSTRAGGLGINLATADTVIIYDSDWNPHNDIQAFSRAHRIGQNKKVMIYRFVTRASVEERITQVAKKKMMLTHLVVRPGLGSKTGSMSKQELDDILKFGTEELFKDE
CHD4(355–1912), sequence (Q14839 355-1912): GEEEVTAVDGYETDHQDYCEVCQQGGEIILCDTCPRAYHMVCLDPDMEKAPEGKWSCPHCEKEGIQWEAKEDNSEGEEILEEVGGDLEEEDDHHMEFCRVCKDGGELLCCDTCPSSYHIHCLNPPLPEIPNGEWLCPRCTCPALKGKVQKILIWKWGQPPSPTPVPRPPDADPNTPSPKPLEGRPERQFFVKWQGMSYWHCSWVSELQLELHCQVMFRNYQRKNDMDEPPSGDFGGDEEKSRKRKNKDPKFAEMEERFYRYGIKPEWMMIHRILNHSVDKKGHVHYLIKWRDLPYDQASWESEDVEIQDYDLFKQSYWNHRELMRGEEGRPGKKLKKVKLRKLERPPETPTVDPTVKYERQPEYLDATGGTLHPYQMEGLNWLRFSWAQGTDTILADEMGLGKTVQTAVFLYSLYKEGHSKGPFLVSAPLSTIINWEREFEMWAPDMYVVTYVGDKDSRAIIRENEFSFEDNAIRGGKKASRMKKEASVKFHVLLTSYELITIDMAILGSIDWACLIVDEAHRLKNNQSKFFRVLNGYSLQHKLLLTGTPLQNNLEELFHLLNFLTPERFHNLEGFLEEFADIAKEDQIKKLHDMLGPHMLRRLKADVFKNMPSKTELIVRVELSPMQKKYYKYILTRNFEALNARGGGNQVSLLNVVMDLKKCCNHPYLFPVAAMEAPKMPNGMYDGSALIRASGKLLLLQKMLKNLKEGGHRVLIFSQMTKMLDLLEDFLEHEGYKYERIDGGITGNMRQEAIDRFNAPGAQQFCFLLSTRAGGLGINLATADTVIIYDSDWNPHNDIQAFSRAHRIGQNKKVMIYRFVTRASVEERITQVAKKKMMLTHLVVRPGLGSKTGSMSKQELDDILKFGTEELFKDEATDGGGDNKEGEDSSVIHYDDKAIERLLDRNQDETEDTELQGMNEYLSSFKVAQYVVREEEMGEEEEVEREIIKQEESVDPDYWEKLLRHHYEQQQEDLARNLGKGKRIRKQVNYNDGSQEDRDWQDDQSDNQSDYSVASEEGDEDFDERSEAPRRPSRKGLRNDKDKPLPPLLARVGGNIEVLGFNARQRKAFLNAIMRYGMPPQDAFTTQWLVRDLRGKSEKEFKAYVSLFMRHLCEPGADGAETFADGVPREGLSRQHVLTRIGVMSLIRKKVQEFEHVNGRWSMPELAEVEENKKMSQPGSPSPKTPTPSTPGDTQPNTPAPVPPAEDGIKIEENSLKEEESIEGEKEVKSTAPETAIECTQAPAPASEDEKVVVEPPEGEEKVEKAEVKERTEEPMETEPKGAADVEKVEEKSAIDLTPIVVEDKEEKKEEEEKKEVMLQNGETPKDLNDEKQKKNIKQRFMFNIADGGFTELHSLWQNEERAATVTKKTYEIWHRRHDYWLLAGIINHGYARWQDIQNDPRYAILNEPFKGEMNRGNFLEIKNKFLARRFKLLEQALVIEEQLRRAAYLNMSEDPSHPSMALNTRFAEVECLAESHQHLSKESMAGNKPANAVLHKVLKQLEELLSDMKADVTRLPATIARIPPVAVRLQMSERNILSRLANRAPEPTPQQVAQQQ
CHD4(1–1540), sequence (Q14839 1-1540): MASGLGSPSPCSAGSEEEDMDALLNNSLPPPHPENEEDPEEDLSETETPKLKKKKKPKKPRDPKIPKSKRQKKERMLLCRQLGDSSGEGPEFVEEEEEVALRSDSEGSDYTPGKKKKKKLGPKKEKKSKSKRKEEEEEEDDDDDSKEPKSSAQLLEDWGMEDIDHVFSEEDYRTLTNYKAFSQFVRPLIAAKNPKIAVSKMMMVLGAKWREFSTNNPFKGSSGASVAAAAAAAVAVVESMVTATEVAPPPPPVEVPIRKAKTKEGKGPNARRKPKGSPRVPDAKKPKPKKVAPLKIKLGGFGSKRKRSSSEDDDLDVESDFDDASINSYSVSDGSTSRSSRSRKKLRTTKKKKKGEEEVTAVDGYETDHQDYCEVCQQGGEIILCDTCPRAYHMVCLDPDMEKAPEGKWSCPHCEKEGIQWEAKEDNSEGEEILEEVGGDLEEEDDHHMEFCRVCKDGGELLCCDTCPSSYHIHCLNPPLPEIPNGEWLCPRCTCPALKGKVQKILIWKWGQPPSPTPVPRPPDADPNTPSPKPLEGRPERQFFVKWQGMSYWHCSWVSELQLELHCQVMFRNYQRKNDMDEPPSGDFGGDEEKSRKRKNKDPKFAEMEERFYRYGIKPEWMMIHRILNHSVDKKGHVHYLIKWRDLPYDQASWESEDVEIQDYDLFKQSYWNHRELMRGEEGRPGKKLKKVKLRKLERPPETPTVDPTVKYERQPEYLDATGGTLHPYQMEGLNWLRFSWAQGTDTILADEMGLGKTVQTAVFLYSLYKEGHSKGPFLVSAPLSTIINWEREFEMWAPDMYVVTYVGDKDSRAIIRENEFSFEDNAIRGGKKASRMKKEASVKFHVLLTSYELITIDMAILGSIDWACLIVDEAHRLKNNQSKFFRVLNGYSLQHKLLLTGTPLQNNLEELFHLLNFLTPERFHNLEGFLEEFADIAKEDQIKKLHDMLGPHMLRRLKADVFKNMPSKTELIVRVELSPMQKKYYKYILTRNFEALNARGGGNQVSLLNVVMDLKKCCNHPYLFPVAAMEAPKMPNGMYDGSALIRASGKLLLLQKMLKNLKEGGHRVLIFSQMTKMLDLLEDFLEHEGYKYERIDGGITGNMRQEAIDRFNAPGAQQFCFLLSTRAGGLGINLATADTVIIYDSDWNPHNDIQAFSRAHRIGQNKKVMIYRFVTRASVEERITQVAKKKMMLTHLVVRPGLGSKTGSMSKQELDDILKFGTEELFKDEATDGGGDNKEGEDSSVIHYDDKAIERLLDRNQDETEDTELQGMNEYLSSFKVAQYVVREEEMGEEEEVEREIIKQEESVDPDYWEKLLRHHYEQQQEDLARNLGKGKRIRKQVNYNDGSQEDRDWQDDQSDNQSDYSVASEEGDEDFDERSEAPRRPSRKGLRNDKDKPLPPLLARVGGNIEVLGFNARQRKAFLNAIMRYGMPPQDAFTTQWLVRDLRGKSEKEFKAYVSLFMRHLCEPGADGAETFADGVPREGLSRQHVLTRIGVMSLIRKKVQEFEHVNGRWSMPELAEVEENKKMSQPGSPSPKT

fold decrease in affinity against WT CHD4 [1]: 5 fold
fold increase in binding against CHD4(1–1380) [1]: 2 fold
Substance: CHD4(1–1230) (from UniProt Q14839 1-1230) (domain or fragment)

Substance: 46w60 DNA (naked)
Kd [2]: 10000 nM
Kd (CHD4 WT (Homo sapiens)): 350 nM

Substance: 46w60 nucleosome
Kd (CHD4 WT (Homo sapiens)): 45 nM
Kd [3]: 210 nM
Kd [4]: 430 nM
Kd [5]: 150 nM
Kd [6]: 20 nM
Kd [7]: 100 nM

Kd [1]: 20 nM
Substance: CHD4-IDR2-del– (from UniProt Q14839 1-226; Q14839 363-1912) (enzyme)

fold decrease in affinity against WT CHD4 [1]: 3 fold
Substance: CHD4(1–1810) (from UniProt Q14839 1-1810) (domain or fragment)

fold decrease in substrate binding against WT CHD4 [1]: 10 fold
Substance: CHD4(1–1380) (from UniProt Q14839 1-1380) (domain or fragment)

Kd [1]: 45 nM
Substance: WT CHD4 (human chromodomain helicase DNA-binding protein 4, full length) (from UniProt Q14839 1-1912) (enzyme)

fold decrease in affinity against WT CHD4 [1]: 5 fold
Substance: CHD4-IDR2-del+ (from UniProt Q14839 1-226; Q14839 363-1912) (enzyme)

fold decrease in nucleosome binding against WT CHD4 [1]: 4 fold
Substance: CHD4(1–1540) (from UniProt Q14839 1-1540) (domain or fragment)

fold decrease in substrate binding affinity against WT CHD4 [1]: 3 fold
Substance: CHD4(355–1912) (from UniProt Q14839 355-1912) (domain or fragment)
